Assay results from the DeepSol protein solubility set.

test: soluble on expression in E. coli; label from the status in PepcDB or PDB records

Sequence | soluble on expression in E. coli
MGSMRICIFMARGLEGCGVTKFSLEQRDWFIKNGHEVTLVYAKDKSFTRTSSHDHKSFSIPVILAKEYDKALKLVNDCDILIINSVPATSVQEATINNYKKLLDNIKPSIRVVVYQHDHSVLSLRRNLGLEETVRRADVIFSHSDNGDFNKVLMKEWYPETVSLFDDIEEAPTVYNFQPPMDIVKVRSTYWKDVSEINMNINRWIGRTTTWKGFYQMFDFHEKFLKPAGKSTVMEGLERSPAFIAIKEKGIPYEYYGNREIDKMNLAPNQPAQILDCYINSEMLERMSKSGFGYQLSKLNQKYLQRSLEYTHLELGACGTIPVFWKSTGENLKFRVDNTPLTSHDSGIIWFDENDMESTFERIKELSSDRALYDREREKAYEFLYQHQDSSFCFKEQFDIITK | soluble
MSLKREEICRLLADKVNKLKNKENSLSELLPDVRLLYGETPFARTPVMYEPGIIILFSGHKIGYINERVFRYDANEYLLLTVPLPFECETYATSEVPLAGLRLNVDILQLQELLMDEGHHHHHH | not soluble
MGSSHHHHHHSSGLVPRGSHMSKARVYADVNVLRPKEYWDYEALTVQWGEQDDYEVVRKVGRGKYSEVFEGINVNNNEKCIIKILKPVKKKKIKREIKILQNLCGGPNIVKLLDIVRDQHSKTPSLIFEYVNNTDFKVLYPTLTDYDIRYYIYELLKALDYCHSQGIMHRDVKPHNVMIDHELRKLRLIDWGLAEFYHPGKEYNVRVASRYFKGPELLVDLQDYDYSLDMWSLGCMFAGMIFRKEPFFYGHDNHDQLVKIAKVLGTDGLNAYLNKYRIELDPQLEALVGRHSRKPWLKFMNADNQHLVSPEAIDFLDKLLRYDHQERLTALEAMTHPYFQQVRAAENSRTRA | soluble
MSLKISSMFTPIRIGSMTVPNRFVVPPMGNNFANTDGTLSETSKAYYLERALGGFGLITIESSVVDKKAKGGPRKPCLYDDSTIDSFKNVIDACHDAGSKVSIQLQHAGSEGNEKVAGHPLKAASAIPASNGRNTPLAITTEEIYELIESYGDAALRAQKAGADAVEVHCAHGYLVSSFISQRTNKRVDEFGGCFENRMRLPRLIIENIRKKVGNSLAILCRINSTDDVPGGIDVHDSSVIAAYLEDCGIDGLHVSRSIHIHDEYMWAPTTLHAGFSAELVTEIKKAVSIPVITVGRYTEPQFAELMVRQGRCDLVAFGRQSLADPEMPNKAKNGKLDEMIPCIACLQGCVPNMFQGKPIACLANPILGHEAELKPAEISKEVLVVGGGVGGMLAAWVCAKRGHNVTLVEKSEVLGGQMRLAAYPPGKGDITNLVRSYISKCNQYGVKICTNTEATVELIKEKSPDVVIIATGATPLVLPIPGINDSGLIHAVDLLDGKKSCGKKVLVVGGGMVGCEVAAFLGEQEHEVTVIELREEVGADVISEHRKFLMNDFENYNIHTITGAKVSKFYDDGVDYLLTDGTEHDLKGFDSVVLAMGSRNYDPLSEVIKEVVKETYIVGDAVKARRALDATKEAFEVALNIEGHHHHHH | soluble
MQRCDWVSQDPLYIAYHDNEWGVPETDSRKLFEMICLEGQQAGLSWITVLKKRENYRACFHQFDPIRIAAMQEEDVERLLQNTGIIRHRGKIQAIISNARAWLAMEQNGESFADFVWSFVDGQPQITQAASLDKIPTSTPASDALAKALKKRGFKFVGTTICYSFMQACGLVNDHITGCFCHPG | soluble
MGSDKIHHHHHHMLNQQWLATFVTLVEVGHFTHTANKLFMTQPGVSQHIKKLEEQVGVHLLLRKGKRFELTEAGAILYQHARQYQLAETELLARLQTDNTYVGECRFGCSGAIASLLYPHFLERQIQYPELCVKIEAAPNQRIVSGILTNQLDMGIVTKRGEEADLTYQALGYAELSLVLPSQYLVDKIGIELLEQIGFIDHPDGDYYLQQVLQANFGGRAPMVNSRTGSPVKAHTMAFTHHIRRTGYVNQLSQILLPVAKGLGFTVLPLSTVNAFMPRESLWAVDLEQKVQESLYLVHKSTRPLPSRFDAFIEMAARLIAN | not soluble
MGSDKIHHHHHHMQSYSLAELNKETTIGGIGKTVERDVPVIDLADFDNRKAEIADQLWEASVGIGFFQVYNHGIPQQDIDAAFETAWSFFELPADIKAQYPMPKGTNAGWEFKAQVRPSTGTPDNKESYQITRPMMGGLWPSEEELPDFKEKMLRFERQNWELGMRILSCFALKMGFAEDFFTKAHDPASSEYQSTQRLIHYMSMEHAKPEDFEFWRAGAHSDFDCLTILHQKEGEGGLQVCPGKDAASGEWTDVPPKNGYITCNIGDMLMRWSDDQLQSTLHRVRMPRPGEYLGRRLSLPFFCQANRDAVMQGPLGKYEAITAGDYLTQRINANFARK | not soluble
MLTISNQVQLADWEIELTAIRAQGAGGQNVNKVSSAIHLRFDISRSTLPAFYKERLLKMRDHRITKEGIIIIKAQQFRTQEKNREDALDRLKQLIQSATETQKARKETKPTRSSQHKRMDKKSQRGQTKSMRKKVDYLEHHHHHH | soluble
MGSDKIHHHHHHGNLGKYSIYYAQNLPHETGTNSVMTAVFKHLGDVYIPYNSLDNDGNKMLETEDKTIHYQAGGMFSPTMITVKSTKDGDVLLSLQSDSQFPYCIYDFTENTYYGFNRAGTLVAEFIDSNTNVLSSHRVSALNTVNKLQNEMYGPIISHRKVPKINLQFIYNFVNEGKFK | not soluble
MSLNNMRLFKKSLLAVTVTLATQQAFAAGFQLNAQSATGLGRAFAGDAVIADNAAVMSRNPAAMALFDEMALSLGFETITTMIDVKNVSYRGVLGNSVSVQDTDDVGGTSVAPNIHLIVPVNEQFAWGVNAYSNFGTKTEFSDSYPASEYGGLTDVKSFNLGLAGSYRVNKEWSFGAGLDLIYGQGTMKRIAGTSFPASTIVVNPTTVIPARGTSLLNVDKADGWAVGFNLGTVYEMDENNRFGLSYRYSPEFKAKDDYGQEITLPLPDIAEFSGFHKIENTQFAVHYSVQWIGWSAFDKIEFRNLVTSRSSVGALTKGSYDKMYEWQDGWHYSIGGTYYLNSDWTLRAGYMYDTSAQDSRTSISVPDSDRQWLSAGFTYNIDDKSNVDFGFTYLMGKDVAVSENDAGSKLTATTHADAILLGLQYSRTFEGGSHHHHHH | soluble
MGHHHHHHSHMDPEVTLLLQCPGGGLPQEQIQAELSPAHDRRPLPGGDEAITAIWETRLKAQPWLFDAPKFRLHSATLAPIGSRGPQLLLRLGLTSYRDFLGTNWSSSAAWLRQQGATDWGDTQAYLADPLGVGAALATADDFLVFLRRSRQVAEAPGLVDVPGGHPEPQALCPGGSPQHQDLAGQLVVHELFSSVLQEICDEVNLPLLTLSQPLLLGIARNETSAGRASAEFYVQCSLTSEQVRKHYLSGGPEAHESTGIFFVETQNVRRLPETEMWAELCPSAKGAIILYNRVQGSPTGAALGSPALLPPL | not soluble
MGSDKIHHHHHHSPTQELNSAKIISTLTAHYGERAGLRAKAWFQVLSKAEHVDEQEKLKMVNQFFNLFRFVEDKTLWGDSNYWATPMEFIGVNGGDCEDFSIAKYFTLLQLGVSEDKLRITMVKATTMNQYHMVLAYYPTPSSIPLVLDNLDREIKPATQRNDLLPVYSFNGKQLWLNKEKGRGVLAGSSSRLKKWNDLKHRLGVDRLRQPKLKME | not soluble
MNVKEVVTEEQLHDVLPVLQQLRTKLSKEETSSLFRNMKEENYKLFSLRNEDDEVVSLAGVAICTNFYNKKHVFVYDLVTAEAHRSKRHGKVLLSYIENWGKENECESIVLTSAFSRIDAHRFYEREGYDKVSYSFHKEL | not soluble
MGSSHHHHHHSSGLVPRGSHMKMSFRWYGKKDPVTLEEIKAIPGMQGIVTAVYDVPVGQAWPLENILELKKMVEEAGLEITVIESIPVHEDIKQGKPNRDALIENYKTSIRNVGAAGIPVVCYNFMPVFDWTRSDLHHPLPDGSTSLAFLKSDLAGVDPVADDLNLPGWDSSYSKEEMKAIIENYRQNISEEDLWANLEYFIKAILPTAEEAGVKMAIHPDDPPYGIFGLPRIITGQEAVERFLNLYDSEHNGITMCVGSYASDPKNDVLAMTEYALKRNRINFMHTRNVTAGAWGFQETAHLSQAGDIDMNAVVKLLVDYDWQGSLRPDHGRRIWGDQTKTPGYGLYDRALGATYFNGLYEANMRAAGKTPDFGIKAKTVGTKEG | soluble
MSLTPWLSIVGISEEGWLALTPIAQQCILQADILVGSDRHFDLLPSLPGAEQWRWGSPFSATITQILERRGQSICILASGDPMCYGVGSLLAQRLPLTELQILPAPSAFSLACSRLGWALPEVETLSLCGRDPALLNALLYPGAKILALSADRSTPATIAEQLCQQGWGSSRLTVLEHLGGPKERKISEIAEHWSQPTIASLNTVAIECHARDRDLIVPPRLTGLPDAAYHHDGQLTKREVRAITLAALAPLPGQLLWDVGAGCGSIGIEWMRSDRRCRAIAIEQHPQRLQIITQNAIALGVPNLQVVAGSAPATLSGLPQPDAIFIGGGVTAPGVLDQCWQALPMGGRLVVNAVTLESEQVVLAGQQRWGGDLIRVAVQRAEPIGRFLGWKSLAPITQWTVKKTALEHHHHHH | soluble
MSLRFGNRKLRQQQALQYELEKNKAELEEYREELVSHFARSAELLDTMAHDYRQLYQHMAKSSSSLLPEMSAESNPFRNRLAESEASNDQAPVQMPRDYSEGASGLLRSGAKRDEGHHHHHH | not soluble
SLSARSSHLSQPVVKSVLVYRNGDPFYAGRRVVIHEKKVSSFEVFLKEVTGGVQAPFGAVRNIYTPRTGHRIRKLDQIQSGGNYVAGGQEAFKKLNYLDIGEIKKRPMEVVNT | soluble
MSLFMNPHRRFWMVTGWTKSAIWVARWLLGIRWQCQGWEHIEEAVATNKQVVLLSKHQSAWETIAFVAIMPRPLCYVFKRELLYVPFFGWALGMLKMVHINRKDGTNAFASVARQGKERMADGSWIIMFPEGTRTPVGAPNPRYKSGGARLAVDTGAWVIPIAHNSGRLWPRNAFLKYPGLITLSIGPAISSAGKSGDQLNREVQAWIEAEMRRIDADSYEGHHHHHH | not soluble
MLPKTWRENFFVLVREVKNLRATAKKISRHFFRKYEPQPGVFWFVFHLSRSHPFPFLKPLLSGDQARGAATPTPCMRTHLFHRIDPIKSEMGGLSTGYITFVWRGVHPRIGPIAAESLTDGKEEDEALSCGYII | not soluble
MLKRRRFHVHFGWILFHCQDCMRHEEGSEESESSFTEMVAEELKLREAQAQEDEWRADRLLLDAKKAASQYQKEADKCSMGMETCELAREKAEAALDEQRRLSYMWELRARQGGWKEGTVASDVI | soluble
MGSDKIHHHHHHANNFGITYSLPKTSLVVDAEVTKVTCKAGPYYQYAEKYLGVKDAVTEDKIYFDLGKISLINRGLPDADNTYIVEFKQGTVAPYAYLTEDGLLCSINAEYTPVESELDAAKKNKGSQQKVTDTSVFSEELLMAGSTAKQAEVAAKQIYRIRESRLNILTGEADNLPPDGEAMKLVIQQLEEQEKALTNLFTGILTKETEHYEVSIIPHDNLDKEVLFRFSKQLGIVDADDLGGTPVYMNLKATERAPILDAKEAEKKDKSLKGIVYNVPGKASIEILMNKKTLYKGEAQITQFGTREGLAPVMFEDKKAPVKVLFYPETGAIKQIIQ | not soluble
MGSDKIHHHHHHMEEYFNGLLKEVDQRMATTAPGMDGKEVIGVCREMVSYLKGKNRELKEYALAHPFAGDAKEILYFKYYKPALTGRLLYYYRVYQIESGCPACLRVAEPYYRKAMERAERMMERYLPFYQYYHSGATYRDSYYFLRAKGELSPESGSFVLDEEAEFSTGYDILAARLISVEMLLVHLSRRMERAAQGTETEAVPEKEHRWTNTKVAAILLVYGIHVTGSVDEGNAEIGELAALFEKHFHVDLGNVYHAFGRLRGQQNPTAFLDEMKERLLKKMRDMDSR | not soluble
